Blank lines part the entries; values can stand above or below the binder they belong to.
Experiments:
His+SUMO-atDjA1 = target: T1, His+SUMO-atDjA1 (Arabidopsis thaliana, UniProt Q94AW8 1-420); assay: pull-down
T1 sequence (looked up): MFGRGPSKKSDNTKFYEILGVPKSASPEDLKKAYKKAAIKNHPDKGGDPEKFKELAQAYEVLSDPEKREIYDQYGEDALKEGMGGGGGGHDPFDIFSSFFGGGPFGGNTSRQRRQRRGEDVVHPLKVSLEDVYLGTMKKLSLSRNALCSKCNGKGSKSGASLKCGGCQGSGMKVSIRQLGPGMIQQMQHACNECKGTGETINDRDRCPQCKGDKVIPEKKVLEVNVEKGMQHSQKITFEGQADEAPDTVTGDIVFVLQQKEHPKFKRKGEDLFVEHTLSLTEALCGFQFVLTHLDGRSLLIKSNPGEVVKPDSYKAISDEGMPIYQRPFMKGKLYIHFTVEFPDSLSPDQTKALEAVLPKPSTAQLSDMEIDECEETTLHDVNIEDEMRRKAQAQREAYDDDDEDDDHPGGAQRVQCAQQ

His+SUMO-atDjA2 = target: T2, His+SUMO-atDjA2 (Arabidopsis thaliana, UniProt P42825 1-419); assay: pull-down
T2 sequence (looked up): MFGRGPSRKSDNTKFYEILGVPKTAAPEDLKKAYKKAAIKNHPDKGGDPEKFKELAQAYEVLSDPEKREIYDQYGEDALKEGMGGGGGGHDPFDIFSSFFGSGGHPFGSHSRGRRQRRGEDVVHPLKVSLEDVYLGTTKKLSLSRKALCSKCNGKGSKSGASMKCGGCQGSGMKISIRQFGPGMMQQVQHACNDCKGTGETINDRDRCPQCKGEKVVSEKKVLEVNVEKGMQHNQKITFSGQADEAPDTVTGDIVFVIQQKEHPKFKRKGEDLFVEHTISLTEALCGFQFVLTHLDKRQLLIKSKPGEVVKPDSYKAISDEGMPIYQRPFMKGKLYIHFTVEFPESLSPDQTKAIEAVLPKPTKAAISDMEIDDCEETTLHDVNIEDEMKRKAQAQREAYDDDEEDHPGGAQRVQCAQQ

binding result (His+SUMO-atDjA1): binds
binding result (His+SUMO-atDjA2): binds
B1: GST-Metaxin (cytosolic domain, aa 1-191) (domain or fragment, Arabidopsis thaliana, UniProt O64471 1-191, looked up)
chain: MEGDQETNVYTLVARKPSFDLPTACPNCLPAYIYLKLAQLPFELAFNSTFPDSDELPYFESDTYVAYNNEDGGVIEKLKKDGIVNLDSQLQSLSDYLSLKALIVSWLEEALTYEIWVGTEGISTSKIYYSDLPWVISKVLFYKQTYLAKNRLGITKENAEQREKQIYKRASEAYEALSTRLGEQKFLFEDR

binding result (His+SUMO-atDjA1): binds
B2: GST-Tom9.2 (cytosolic domain, aa 1-53) (domain or fragment, Arabidopsis thaliana, UniProt Q9FNC9 1-53, looked up)
chain: MAAKRIGAGKSGGGDPNILARISNSEIVSQGRRAAGDAVEVSKKLLRSTGKAA

binding result (His+SUMO-atDjA2): binds
B3: GST-OM64 (cytosolic domain, aa 488-586) (domain or fragment, Arabidopsis thaliana, UniProt F4KCL7 488-586, looked up)
chain: SEVMKEKGNAAYKGKQWNKAVNFYTEAIKLNGANATYYCNRAAAFLELCCFQQAEQDCTKAMLIDKKNVKAYLRRGTARESLVRYKEAAADFRHALVLE
